Patent publication US6998116 (Genentech, dated 2006)

Target: the molecule itself
Experiment: self-association: chemical crosslinking (sulfo-NHS/EDC), SDS-PAGE and silver staining
Protocol: Minor 48 kDa and 66 kDa bands were also observed, and probably represent soluble Apo-2 ligand homodimers and homotrimers. Chemical crosslinking of the purified $His10$-Apo-2 ligand by incubation with sulfo-NHS (5 mM) (Pierce Chemical) and EDC (Pierce Chemical) at 25 mM and 50 mM (FIG. 1D, lanes 1 and 2, respectively), shifted the protein into the 66 kDa band primarily.

B1: His10-Apo-2 ligand (purified soluble Apo-2 ligand residues 114-281 with N-terminal Met Gly His10 tag and enterokinase site) (ligand)
chain: MGHHHHHHHHHHSSGHIDDDDKHMVRERGPQRVAAHITGTRGRSNTLSSPNSKNEKALGRKINSWESSRSGHSFLSNLHLRNGELVIHEKGFYYIYSQTYFRFQEEIKENTKNDKQMVQYIYKYTSYPDPILLMKSARNSCWSKDAEYGLYSIYQGGIFELKENDRIFVSVTNEHLIDMDHEASFFGAFLVG
notes: Made in baculovirus-infected Sf9 cells, purified on Ni2+-NTA; also called His10-Apo-2 ECD
- binding result: binds
